The text below walks through data of article PMC7894019.

The data set concerns the target ZNF191 (purified recombinant) (UniProt P17028 1-368). Description: EMSA. Background: A gel shift assay detects complexes by their altered migration in electrophoresis.

ZNF191 (purified recombinant), sequence (P17028 whole entry): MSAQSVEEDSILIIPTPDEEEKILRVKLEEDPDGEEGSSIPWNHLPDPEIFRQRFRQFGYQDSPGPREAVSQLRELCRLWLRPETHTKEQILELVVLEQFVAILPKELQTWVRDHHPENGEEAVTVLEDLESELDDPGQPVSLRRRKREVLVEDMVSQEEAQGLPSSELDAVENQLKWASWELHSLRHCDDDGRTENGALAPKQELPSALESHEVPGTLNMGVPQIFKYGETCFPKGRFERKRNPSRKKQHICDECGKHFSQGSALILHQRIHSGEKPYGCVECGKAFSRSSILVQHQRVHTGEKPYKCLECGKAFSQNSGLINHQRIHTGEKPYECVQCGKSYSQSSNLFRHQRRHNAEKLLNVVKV

B1: WNT8BP(nt-1178) (dsDNA)
DNA 1: GATTATCATGCATTCATTGTATGCCTGTAT
DNA 2: ATACAGGCATACAATGAATGCATGATAATC
As to B1, the binding result is “binds”.

B2: WNT8BP(nt-1491) (dsDNA)
DNA 1: GTGAATTTGTGTATTAATTCTTTATTTTCT
DNA 2: AGAAAATAAAGAATTAATACACAAATTCAC
As for B2, the binding result is “binds”.
